Patent US20230265151A1, “GIP/GLP1 CO-AGONIST COMPOUNDS” (priority 2020, published 2023)
*1 amine or outer side, *2 acyl side, *3 side chain or, on linkers, in order; H or OH if unused. Where no end group is shown, it is not given here. Side-chain parts run from the residue outwards. [ ]: non-standard residue; d: D form. The star is where a group is joined. Decanoyl(10-(4-HOOC-PhO)) = O=C(O)c1ccc(OCCCCCCCCCC(=O)*)cc1; αMePhe(2-F) = C[C@](N)(Cc1ccccc1F)C(=O)O; γGlu = O=C(O)[C@H](CCC(=O)[*:2])N[*:1]; C14 diacid = O=C(O)CCCCCCCCCCCCC(=O)*; αMeY = C[C@](N)(Cc1ccc(O)cc1)C(=O)O; αMeL = CC(C)C[C@](C)(N)C(=O)O; Orn = NCCC[C@H](N)C(=O)O; AEEA = NCCOCCOCC(=O)O; Aib = CC(C)(N)C(=O)O

T1: human GIP receptor (human) (UniProt P48546)
T1 sequence (looked up): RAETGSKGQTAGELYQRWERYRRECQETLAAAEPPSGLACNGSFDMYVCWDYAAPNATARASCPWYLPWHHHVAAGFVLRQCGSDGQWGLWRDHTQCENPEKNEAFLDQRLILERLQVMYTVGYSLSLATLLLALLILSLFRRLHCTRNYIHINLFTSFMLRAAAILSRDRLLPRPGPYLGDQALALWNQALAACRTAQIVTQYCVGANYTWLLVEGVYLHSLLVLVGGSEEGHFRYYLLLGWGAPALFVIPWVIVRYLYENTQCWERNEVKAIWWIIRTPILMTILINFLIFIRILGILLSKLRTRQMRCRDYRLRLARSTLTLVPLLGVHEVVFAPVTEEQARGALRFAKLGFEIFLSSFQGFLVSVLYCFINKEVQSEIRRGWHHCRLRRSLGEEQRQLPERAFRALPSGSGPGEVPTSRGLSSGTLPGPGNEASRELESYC

T2: human GIP receptor (human, UniProt P48546 22-466)
T2 sequence (looked up): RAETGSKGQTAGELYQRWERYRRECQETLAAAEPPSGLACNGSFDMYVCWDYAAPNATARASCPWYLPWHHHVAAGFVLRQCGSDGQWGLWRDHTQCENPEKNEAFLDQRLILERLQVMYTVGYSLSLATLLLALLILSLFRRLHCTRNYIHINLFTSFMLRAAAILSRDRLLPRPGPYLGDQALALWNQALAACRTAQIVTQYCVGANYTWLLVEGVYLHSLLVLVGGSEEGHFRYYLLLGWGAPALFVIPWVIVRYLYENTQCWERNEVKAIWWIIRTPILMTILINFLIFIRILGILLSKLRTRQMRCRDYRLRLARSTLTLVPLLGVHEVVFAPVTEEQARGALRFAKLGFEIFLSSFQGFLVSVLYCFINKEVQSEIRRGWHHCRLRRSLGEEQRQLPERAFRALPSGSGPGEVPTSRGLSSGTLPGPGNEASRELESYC


What was measured:
Assay in all cases: cell-based or functional assay
[1] = target: hGLP-1R (Homo sapiens, UniProt P43220)
[2] = target: T1, human GIP receptor (human)
[3] = target: human glucagon receptor (human) (UniProt P47871)
[4] = target: T2, human GIP receptor
[5] = target: human GLP-1 receptor (human, UniProt P43220 24-463)
[6] = target: human glucagon receptor (human, UniProt P47871 26-477)
Chain of human glucagon receptor (P47871 26-477): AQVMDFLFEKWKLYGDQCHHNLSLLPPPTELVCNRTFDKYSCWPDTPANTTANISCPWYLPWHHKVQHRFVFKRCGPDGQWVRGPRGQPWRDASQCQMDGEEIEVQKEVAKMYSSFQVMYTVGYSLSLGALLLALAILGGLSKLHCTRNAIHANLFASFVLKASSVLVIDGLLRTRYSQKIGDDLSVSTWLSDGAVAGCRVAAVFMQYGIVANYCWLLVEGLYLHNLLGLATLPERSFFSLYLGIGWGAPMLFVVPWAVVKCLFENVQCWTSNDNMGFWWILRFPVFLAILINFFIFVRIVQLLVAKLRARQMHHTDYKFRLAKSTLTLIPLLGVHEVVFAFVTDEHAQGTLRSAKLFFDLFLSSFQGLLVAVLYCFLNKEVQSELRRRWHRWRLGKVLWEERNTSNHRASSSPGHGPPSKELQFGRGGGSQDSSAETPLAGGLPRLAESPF

Binder | cAMP EC50 [1] [nM] | cAMP Emax [1] [%] | cAMP EC50 [2] [nM] | cAMP Emax [2] [%] | cAMP EC50 [3] [nM] | cAMP EC50 (1.0% HSA) [4] [nM] | cAMP EC50 (1.0% HSA) [5] [nM] | cAMP EC50 (1.0% HSA) [6] [nM] | cAMP Emax (1.0% HSA) [4] [%] | cAMP Emax (1.0% HSA) [5] [%]
YXEGTXTSDXXIXLDXKAQXKFIXXLIEGGPSSGAPPPS (Y-Aib-EGT-αMeF(2F)-TSD-4Pal-Aib-I-αMeL-LD-Orn-K((2-[2-(2-Amino-ethoxy)-ethoxy]-acetyl)2-CO-(CH2)12-CO2H)AQ-Aib-K((2-[2-(2-Amino-ethoxy)-ethoxy]-acetyl)2-CO-(CH2)12-CO2H)FI-(D-Glu)-αMeY-LIEGGPSSGAPPPS-NH2) [Example 384] | 0.308 | 98.2 | 0.0124 | 94.5 | > 9950 | 0.457 | 5.32 | > 9950 |  | 
YXEGTXTSDYXIXLDXKAQXEFIXXLIKGGPSSGAPPPS (Y-Aib-EGT-αMeF(2F)-TSDY-Aib-I-αMeL-LD-Orn-K((2-[2-(2-Amino-ethoxy)-ethoxy]-acetyl)2-(10-(4-carboxyphenoxy)decanoyl))AQ-Aib-EFI-(D-Glu)-αMeY-LIK((2-[2-(2-Amino-ethoxy)-ethoxy]-acetyl)2-(10-(4-carboxyphenoxy)decanoyl))GGPSSGAPPPS-NH2) [Example 396] | 0.291 | 107 | 0.0113 | 96.2 | > 9950 | 0.595 | 6.49 | > 9950 | 67.1 | 94.4
YXEGTXTSDVXIXLDXKAQXKFIXXLIEGGPSSGAPPPS (Y-Aib-EGT-αMeF(2F)-TSDV-Aib-I-αMeL-LD-Orn-K((2-[2-(2-Amino-ethoxy)-ethoxy]-acetyl)2-(10-(4-carboxyphenoxy)decanoyl))AQ-Aib-K((2-[2-(2-Amino-ethoxy)-ethoxy]-acetyl)2-(10-(4-carboxyphenoxy)decanoyl))FI-(D-Glu)-αMeY-LIEGGPSSGAPPPS-NH2) [Example 394] | 0.223 | 101 | 0.0179 | 97.7 | > 9950 | 1.38 | 5.83 | > 9950 | 84.6 | 
YXEGTXTSDYXIXLDXKAQXKFIXXLIEGGPSSGAPPPS (Y-Aib-EGT-αMeF(2F)-TSDY-Aib-I-αMeL-LD-Orn-K((2-[2-(2-Amino-ethoxy)-ethoxy]-acetyl)2-CO-(CH2)12-CO2H)AQ-Aib-K((2-[2-(2-Amino-ethoxy)-ethoxy]-acetyl)2-CO-(CH2)12-CO2H)FI-(D-Glu)-αMeY-LIEGGPSSGAPPPS-NH2) [Example 385] | 0.189 | 100 | 0.0154 | 95.2 | > 9950 | 0.558 | 10.6 | > 9950 | 83.5 | 112
YXEGTXTSDYXIXLDXKAQXEFIXXLIKGGPSSGAPPPS (Y-Aib-EGT-αMeF(2F)-TSDY-Aib-I-αMeL-LD-Orn-K((2-[2-(2-Amino-ethoxy)-ethoxy]-acetyl)2-CO-(CH2)12-CO2H)AQ-Aib-EFI-(D-Glu)-αMeY-LIK((2-[2-(2-Amino-ethoxy)-ethoxy]-acetyl)2-CO-(CH2)12-CO2H)GGPSSGAPPPS-NH2) [Example 388] | 0.292 | 95.4 | 0.0103 | 98.3 | > 9950 | 0.463 | 6.31 | > 9950 |  | 
YXEGTXTSDVXIXLDXKAQXKFIXXLIEGGPSSGAPPPS (Y-Aib-EGT-αMeF(2F)-TSDV-Aib-I-αMeL-LD-Orn-K((2-[2-(2-Amino-ethoxy)-ethoxy]-acetyl)2-CO-(CH2)12-CO2H)AQ-Aib-K((2-[2-(2-Amino-ethoxy)-ethoxy]-acetyl)2-CO-(CH2)12-CO2H)FI-(D-Glu)-αMeY-LIEGGPSSGAPPPS-NH2) [Example 386] | 0.194 | 98.9 | 0.0174 | 95.7 | > 9950 | 2.08 | 17.7 | > 9950 | 81.3 | 
YXEGTXTSDYXIXLDXKAQXKFIXXLIEGGPSSGAPPPS (Y-Aib-EGT-αMeF(2F)-TSDY-Aib-I-αMeL-LD-Orn-K((2-[2-(2-Amino-ethoxy)-ethoxy]-acetyl)2-(10-(4-carboxyphenoxy)decanoyl))AQ-Aib-K((2-[2-(2-Amino-ethoxy)-ethoxy]-acetyl)2-(10-(4-carboxyphenoxy)decanoyl))FI-(D-Glu)-αMeY-LIEGGPSSGAPPPS-NH2) [Example 393] | 0.372 | 96.8 | 0.0115 | 94.3 | > 9950 | 0.547 | 9.18 | > 9950 | 66.7 | 
YXEGTXTSDVXIXLDXKAQXKFIXXLIEGGPSSGAPPPS (Y-Aib-EGT-αMeF(2F)-TSDV-Aib-I-αMeL-LD-Orn-K((2-[2-(2-Amino-ethoxy)-ethoxy]-acetyl)-(γ-Glu)-CO-(CH2)12-CO2H)AQ-Aib-K((2-[2-(2-Amino-ethoxy)-ethoxy]-acetyl)-(γ-Glu)-CO-(CH2)12-CO2H)FI-(D-Glu)-αMeY-LIEGGPSSGAPPPS-NH2) [Example 398] | 0.215 | 101 | 0.0166 | 97.4 | > 9950 | 5.4 | 41.3 | > 9950 | 91.9 | 
Y[Aib]EGT[αMePhe(2-F)]TSDV[Aib]I[αMeL]LD[Orn]K([AEEA-AEEA-γGlu-Decanoyl(10-(4-HOOC-PhO))])AQ[Aib]EFI[dE][αMeY]LIEGGPSSGAPPPSK([AEEA-AEEA-γGlu-Decanoyl(10-(4-HOOC-PhO))])-NH2 [Example 380] | 0.176 | 96.2 | 0.0209 | 100 | > 9950 | 9.23 | 28 | > 9950 | 93.5 | 94.5
Y[Aib]EGT[αMePhe(2-F)]TSDV[Aib]I[αMeL]LD[Orn]IAQ[Aib]K([AEEA-AEEA-γGlu-Decanoyl(10-(4-HOOC-PhO))])FI[dE][αMeY]LIEGGPSSGAPPPSK([AEEA-AEEA-γGlu-Decanoyl(10-(4-HOOC-PhO))])-NH2 [Example 383] | 0.306 | 105 | 0.0147 | 100 | > 9950 | 10.7 | 92.2 | > 9950 | 82.8 | 102
Y[Aib]EGT[αMePhe(2-F)]TSDV[Aib]I[αMeL]LD[Orn]K([AEEA-AEEA-Decanoyl(10-(4-HOOC-PhO))])AQ[Aib]EFI[dE][αMeY]LIK([AEEA-AEEA-Decanoyl(10-(4-HOOC-PhO))])GGPSSGAPPPS-NH2 [Example 397] | 0.166 | 95.8 | 0.0293 | 94.6 | > 9950 | 1.92 | 7.17 | > 9950 | 84.5 | 
Y[Aib]EGT[αMePhe(2-F)]TSDV[Aib]I[αMeL]LD[Orn]IAQ[Aib]K([AEEA-γGlu-Decanoyl(10-(4-HOOC-PhO))])FI[dE][αMeY]LIK([AEEA-γGlu-Decanoyl(10-(4-HOOC-PhO))])GGPSSGAPPPS-NH2 [Example 382] | 0.619 | 101 | 0.0302 | 97.6 | > 9950 | 18.7 | 204 | > 9950 | 87.2 | 
Y[Aib]EGT[αMePhe(2-F)]TSDV[Aib]I[αMeL]LD[Orn]K([AEEA-AEEA-C14 diacid])AQ[Aib]EFI[dE][αMeY]LIK([AEEA-AEEA-C14 diacid])GGPSSGAPPPS-NH2 [Example 389] | 0.19 | 92.4 | 0.0178 | 94.6 | > 9950 | 1.5 | 9.58 | > 9950 | 82 | 
